FireProtDB (doi:10.1021/bi00231a002)
Where “and” joins values, the source holds several entries; their conditions need not be identical. Identical values can stand only once.

B1: Cytochrome c2, P00094 (parent)
chain: MKISLTAATVAALVLAAPAFAGDAAKGEKEFNKCKTCHSIIAPDGTEIVKGAKTGPNLYGVVGRTAGTYPEFKYKDSIVALGASGFAWTEEDIATYVKDPGAFLKEKLDDKKAKTGMAFKLAKGGEDVAAYLASVVK

Variants of: B1
Settings: Rhodobacter capsulatus (strain ATCC BAA-309 / NBRC 16581 / SB1003); pH 7.5; 20 °C; GdnHCl; CD; Tris-HCl 20 mM; NaCl 40 mM; structure 1C2R; whole UniProt chain shown

Variant | denaturant m value | denaturant midpoint (higher = more stable) | unfolding free energy
Y96C | 2.57 kcal/mol/M and 1.96 kcal/mol/M | 1.44 M and 2.24 M | 3.71 kcal/mol and 4.4 kcal/mol
Y96F | 2.59 kcal/mol/M and 1.43 kcal/mol/M | 1.71 M and 3.32 M | 4.42 kcal/mol and 4.75 kcal/mol
